The results in this text go back to the Human Domainome abundance scans (Beltran et al. 2025).

± gives the uncertainty stated by the source.

This data set is described as follows: abundance fitness (aPCA) (normalised: wild type 0, dead -1); higher = more abundant; growth selection in yeast, the domain comes from the species named. The conditions noted are these: Homo sapiens.
In turn, “Scaffold attachment factor B2 L30F, Q14151” displayed an abundance fitness of -0.3 ± 0.12.

In turn, “Scaffold attachment factor B2 L30G, Q14151” displayed an abundance fitness of -0.281 ± 0.084. As for “Scaffold attachment factor B2 L30I, Q14151”, the figure is 0.038 ± 0.14; as for “Scaffold attachment factor B2 L30K, Q14151”, -0.461 ± 0.12. As for “Scaffold attachment factor B2 L30M, Q14151”, the figure is -0.036 ± 0.12; as for “Scaffold attachment factor B2 L30P, Q14151”, -0.451 ± 0.14; as for “Scaffold attachment factor B2 L30Q, Q14151”, -0.284 ± 0.14. Under “Scaffold attachment factor B2 L30R, Q14151” stands -0.272 ± 0.072. In turn, “Scaffold attachment factor B2 L30S, Q14151” registered an abundance fitness of -0.233 ± 0.095.

In turn, “Scaffold attachment factor B2 L30T, Q14151” came in with an abundance fitness of -0.345 ± 0.14. As for “Scaffold attachment factor B2 L30W, Q14151”, the figure is -0.771 ± 0.076.

“Scaffold attachment factor B2 L30Y, Q14151” gave an abundance fitness of -0.086 ± 0.12. As for “Scaffold attachment factor B2 L33C, Q14151”, the figure is -0.758 ± 0.12. Under “Scaffold attachment factor B2 L33D, Q14151” stands -0.307 ± 0.12; under “Scaffold attachment factor B2 L33E, Q14151”, -0.072 ± 0.093; under “Scaffold attachment factor B2 L33F, Q14151”, -0.106 ± 0.23. As for “Scaffold attachment factor B2 L33G, Q14151”, the figure is -0.237 ± 0.076; as for “Scaffold attachment factor B2 L33H, Q14151”, -0.46 ± 0.25.

“Scaffold attachment factor B2 L33K, Q14151” registered an abundance fitness of -0.319 ± 0.11. Take “Scaffold attachment factor B2 L33M, Q14151”: the abundance fitness came out at 0.182 ± 0.11. Under “Scaffold attachment factor B2 L33N, Q14151” stands -0.301 ± 0.3; under “Scaffold attachment factor B2 L33Q, Q14151”, -0.24 ± 0.096. Under “Scaffold attachment factor B2 L33R, Q14151” stands -0.331 ± 0.075; under “Scaffold attachment factor B2 L33S, Q14151”, -0.138 ± 0.097. “Scaffold attachment factor B2 L33T, Q14151” yielded an abundance fitness of -0.268 ± 0.1.

Consider “Scaffold attachment factor B2 L33V, Q14151”, for which the abundance fitness is -0.204 ± 0.072. “Scaffold attachment factor B2 L33W, Q14151” had an abundance fitness of -0.103 ± 0.096. With “Scaffold attachment factor B2 L33Y, Q14151”, the abundance fitness is -0.33 ± 0.32. As for “Scaffold attachment factor B2 L38A, Q14151”, the abundance fitness was -0.316 ± 0.077.

“Scaffold attachment factor B2 L38C, Q14151” returned an abundance fitness of -0.532 ± 0.1. As for “Scaffold attachment factor B2 L38D, Q14151”, the figure is -0.746 ± 0.11; as for “Scaffold attachment factor B2 L38F, Q14151”, -0.455 ± 0.2; as for “Scaffold attachment factor B2 L38G, Q14151”, -0.664 ± 0.07. As for “Scaffold attachment factor B2 L38H, Q14151”, the figure is -0.578 ± 0.13; as for “Scaffold attachment factor B2 L38I, Q14151”, -0.141 ± 0.13; as for “Scaffold attachment factor B2 L38K, Q14151”, -0.694 ± 0.12.

For the substance “Scaffold attachment factor B2 L38M, Q14151”, the abundance fitness is -0.139 ± 0.12. Turning to “Scaffold attachment factor B2 L38N, Q14151”, the abundance fitness is -0.509 ± 0.17. Under “Scaffold attachment factor B2 L38P, Q14151” stands -0.637 ± 0.1; under “Scaffold attachment factor B2 L38R, Q14151”, -0.787 ± 0.076; under “Scaffold attachment factor B2 L38S, Q14151”, -0.506 ± 0.094.

In turn, “Scaffold attachment factor B2 L38T, Q14151” registered an abundance fitness of -0.544 ± 0.099.

As to “Scaffold attachment factor B2 L38V, Q14151”, the abundance fitness is -0.863 ± 0.076. Under “Scaffold attachment factor B2 L38W, Q14151” stands -0.791 ± 0.092.

“Scaffold attachment factor B2 L38Y, Q14151” displayed an abundance fitness of -0.612 ± 0.15.

As to “Scaffold attachment factor B2 L42A, Q14151”, the abundance fitness is -0.325 ± 0.085. Under “Scaffold attachment factor B2 L42C, Q14151” stands -0.181 ± 0.11; under “Scaffold attachment factor B2 L42E, Q14151”, -0.381 ± 0.084; under “Scaffold attachment factor B2 L42F, Q14151”, -0.994 ± 0.16. As for “Scaffold attachment factor B2 L42G, Q14151”, the figure is -0.439 ± 0.07; as for “Scaffold attachment factor B2 L42M, Q14151”, -0.505 ± 0.16.

In the case of “Scaffold attachment factor B2 L42N, Q14151”, the abundance fitness is -0.606 ± 0.12. Under “Scaffold attachment factor B2 L42P, Q14151” stands -0.358 ± 0.12; under “Scaffold attachment factor B2 L42Q, Q14151”, -0.827 ± 0.29; under “Scaffold attachment factor B2 L42R, Q14151”, -0.668 ± 0.077. With “Scaffold attachment factor B2 L42S, Q14151”, the abundance fitness was -0.697 ± 0.089. Under “Scaffold attachment factor B2 L42T, Q14151” stands -0.44 ± 0.12. Under “Scaffold attachment factor B2 L42W, Q14151” stands -1.1 ± 0.083.

Take “Scaffold attachment factor B2 L47A, Q14151”: the abundance fitness was -0.393 ± 0.079. As for “Scaffold attachment factor B2 L47C, Q14151”, the figure is -0.339 ± 0.096. Under “Scaffold attachment factor B2 L47D, Q14151” stands -0.491 ± 0.11; under “Scaffold attachment factor B2 L47E, Q14151”, -0.394 ± 0.098; under “Scaffold attachment factor B2 L47G, Q14151”, -0.616 ± 0.068. Under “Scaffold attachment factor B2 L47H, Q14151” stands -0.789 ± 0.25.

Substance “Scaffold attachment factor B2 L47I, Q14151” gave an abundance fitness of -0.534 ± 0.19. Under “Scaffold attachment factor B2 L47K, Q14151” stands -0.246 ± 0.11; under “Scaffold attachment factor B2 L47M, Q14151”, -0.265 ± 0.13; under “Scaffold attachment factor B2 L47N, Q14151”, -0.877 ± 0.23. “Scaffold attachment factor B2 L47P, Q14151” registered an abundance fitness of -0.194 ± 0.45.
